How the values were obtained:
[1] = molecular target: GST:Anillin (608–940) (human) (UniProt Q9NQW6); assay: pull-down; lysates of transfected HEK-293 cells diluted by 0.5-fold, 0.25-fold or 0.05-fold, pulled down with 200 nM GST-tagged AHD; western blot for Myc, % bound protein
[2] = molecular target: GST:Anillin (608–940) (human) (UniProt Q9NQW6); assay: pull-down; purified MBP- or GST-tagged anillin fragments (200 nM) as bait; lysates of transfected HEK-293 cells; 50 mM Tris pH7.6, 150 mM NaCl, 5 mM MgCl2, 0.5% Triton X-100, 1 mM DTT, 4°C; western blot for Myc

Chain of UniProt Q9NQW6 (Q9NQW6 645-977): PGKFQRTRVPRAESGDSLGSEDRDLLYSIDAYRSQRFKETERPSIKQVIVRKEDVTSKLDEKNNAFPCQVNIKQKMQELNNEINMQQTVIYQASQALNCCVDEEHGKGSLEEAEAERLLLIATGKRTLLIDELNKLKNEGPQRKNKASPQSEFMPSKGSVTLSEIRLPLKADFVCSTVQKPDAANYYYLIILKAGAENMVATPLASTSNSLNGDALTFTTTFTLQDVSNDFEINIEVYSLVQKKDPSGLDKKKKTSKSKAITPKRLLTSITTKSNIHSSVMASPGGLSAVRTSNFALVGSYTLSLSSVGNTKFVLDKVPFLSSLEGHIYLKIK

percent of protein bound at the lowest dilution [1] [%] | fold change of the amount pulled down against wild-type Ect2 (C-term) [2] [fold lower] | Substance
38 | – | Myc:Ect2 (421–883) (domain or fragment)
– | 0.5 | Myc:Ect2 (421–883; D668G) (domain or fragment)
